Experimental findings from paper PMC2563036, “The HLH-6 Transcription Factor Regulates C. elegans Pharyngeal Gland Development and Function” are described below.

One data set deals with HLH-2;HLH-6 (Caenorhabditis elegans;Caenorhabditis …, UniProt G5EEG9;Q10007 1-399;1-268, |). Kind of data set: EMSA; reticulocyte lysate; poly(dI-dC); no shift though both proteins expressed; EMSA with poly(dI-dC) (37 ng/ug as printed); 5% native PAGE, 100 V, 1 h, room temperature, 45 mM Tris, 45 mM boric acid, 1 mM EDTA pH 8; binding buffer not given in the material. The following applies: protein: ivt;ivt; tags: ;; copies: 1;1; as annealed 5' overhangs of 2 nt (TG) on both strands; end labelled with Klenow, which may fill them in.

The target in the next data set is HLH-2;HLH-3 (Caenorhabditis elegans;Caenorhabditis …, UniProt G5EEG9;Q22717 1-399;1-170, |). Kind of data set: EMSA; co-translated in reticulocyte lysate; poly(dI-dC); EMSA with poly(dI-dC) (37 ng/ug as printed); 5% native PAGE, 100 V, 1 h, room temperature, 45 mM Tris, 45 mM boric acid, 1 mM EDTA pH 8; binding buffer not given in the material. The following applies: protein: ivt;ivt; tags: ;His; copies: 1;1; as annealed 5' overhangs of 2 nt (TG) on both strands; end labelled with Klenow, which may fill them in. In general terms: Mobility shift assays separate free from complexed probe on a gel.
Sequence of HLH-2;HLH-3 (G5EEG9 whole entry, chain 1 of 2): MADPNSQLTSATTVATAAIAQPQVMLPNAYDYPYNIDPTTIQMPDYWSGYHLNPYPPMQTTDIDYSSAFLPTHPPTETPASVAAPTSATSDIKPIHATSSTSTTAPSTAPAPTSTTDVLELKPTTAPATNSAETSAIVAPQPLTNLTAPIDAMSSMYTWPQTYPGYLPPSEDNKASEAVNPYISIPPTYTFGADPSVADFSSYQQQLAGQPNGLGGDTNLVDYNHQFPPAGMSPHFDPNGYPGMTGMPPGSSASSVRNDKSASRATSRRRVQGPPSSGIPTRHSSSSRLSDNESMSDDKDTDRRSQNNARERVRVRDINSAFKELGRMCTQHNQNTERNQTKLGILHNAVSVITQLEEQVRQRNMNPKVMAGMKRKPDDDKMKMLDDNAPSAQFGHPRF
Sequence of HLH-2;HLH-3 (Q22717 whole entry, chain 2 of 2): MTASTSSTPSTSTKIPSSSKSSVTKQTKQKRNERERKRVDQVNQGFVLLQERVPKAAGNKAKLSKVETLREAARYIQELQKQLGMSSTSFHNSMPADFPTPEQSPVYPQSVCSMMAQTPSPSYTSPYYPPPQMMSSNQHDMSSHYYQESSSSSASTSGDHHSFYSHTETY

Sequence of HLH-2;HLH-6 (G5EEG9 whole entry, chain 1 of 2): as the sequence (G5EEG9 whole entry, chain 1 of 2) above
Sequence of HLH-2;HLH-6 (Q10007 whole entry, chain 2 of 2): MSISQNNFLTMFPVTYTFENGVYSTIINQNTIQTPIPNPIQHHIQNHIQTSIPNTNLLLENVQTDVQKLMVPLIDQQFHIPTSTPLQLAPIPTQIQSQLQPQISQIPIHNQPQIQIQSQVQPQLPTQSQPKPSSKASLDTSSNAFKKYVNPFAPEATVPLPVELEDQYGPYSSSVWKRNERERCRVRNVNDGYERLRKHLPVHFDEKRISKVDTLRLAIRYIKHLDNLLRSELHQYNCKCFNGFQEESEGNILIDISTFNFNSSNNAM

B1: phat-3 PGM1 probe (oGD137/oGD138) (dsDNA)
DNA 1: TGCAAACTTGATGCACCTGTTCAAATGTATGCCC
DNA 2: TGGGGCATACATTTGAACAGGTGCATCAAGTTTG
With B1, the binding result with HLH-2;HLH-6 is “no binding”; with HLH-2;HLH-3 it was “binds”.
